Test [1] concerns the target T1, glucagon (1-29) (Homo sapiens).
T1 construct: Glucagon (1-29), Anaspec 22456, as analyte in Biacore; the listing names Homo sapiens; also called GCG; glucagon peptide
Briefly: Biacore SPR, antibody captured by goat anti-mouse Fc, glucagon (1-29) as analyte; KD = koff/kon. On the procedure:
(§1) Briefly described, the anti-glucagon monoclonal antibody IBA009 or IBA032, may be dissolved in HBS-EP buffer (150 mM sodium chloride, 3 mM EDTA, 0.005% (w/v) surfactant P-20, and 10 mM N-2-hydroxyethylpiperazine-N′-2-ethanesulfonic acid (HEPES) at pH 7.4; #BR-1001-88). Goat anti-mouse Fc antibody is immobilized on flow cells 1 to 4 of a CMS sensor chip at a level of 4000 response units (RUs) using amine coupling chemistry to capture anti-glucagon antibodies.
(§2) Binding may be evaluated using multiple analytical cycles. Each cycle is performed at a flow rate of 50 μl/minute, and may consist of the following steps: injection of about 10 μl of the anti-glucagon monoclonal antibody IBA009 or IBA032 at 10 μg/ml aiming at a capture of 40-100 RUs, injection of 250 μl of glucagon (1-29) (Anaspec 22456)—(starting at 100 nM and using two-fold serial dilutions for each cycle) followed by 20 minutes for dissociation, and regeneration using about 30 μl of 10 mM glycine hydrochloride, pH 1.5. Association and dissociation rates for each cycle may be evaluated using a “1:1 (Langmuir) binding” model in the BIAevaluation software 4.1.
(§3) The anti-glucagon monoclonal antibodies IBA009 and IBA032 may be tested for binding kinetics to glucagon.
(In general: In SPR one partner is held on a chip, and binding of the other changes the refractive index at the surface.)

Test [2] concerns the target T1, glucagon (1-29). Put plainly: affinity for glucagon against commercial antibody K79bB10 (Sigma-Aldrich G2654); method of the reference value not stated.
For test [3], the target named is T1, glucagon (1-29). Put plainly: Biacore SPR, antibody captured by goat anti-mouse Fc, glucagon (1-29) as analyte, 25 C, 1:1 Langmuir model. On the procedure: as §1, §2, §3
In test [4] the target is T1, glucagon (1-29). Briefly: affinity for glucagon against commercial antibody 2D3-2B11 (Sigma-Aldrich WH0002641M1); method of the reference value not stated.

The Kd is a measure of binding affinity in units of concentration. Read a high Kd as a looser complex. For orientation: koff means a measure of how fast the partners let go of each other. For orientation: kon means the rate constant with which the complex forms. Low values mean slower complex formation, high ones faster complex formation.

T1 sequence (peptide, as listed by the source): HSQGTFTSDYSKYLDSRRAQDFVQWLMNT

B1: anti-glucagon monoclonal antibody IBA032 (antibody, mouse IgG1, kappa, V domains shown)
VH: QVQLQQSGAELVKPGASVKMSCKASGYNFTDYWIHWVKERPGQGLEWIGYFSTHSDYAIINQKFRDKATLTADKSSRLAYMQLSSLTSEDSAIYYCARGGLGLSYWGQGTTVTVSS
VL: DIVMTQAAPSVLVTPGESVSISCRSPKSLVGPMGRTYLYWFLQRPGQSPQLLIYRRNNLAPGVPDRFSGSGSGTAFTLRISRVEAEDVGIYYCMQHLEFPLTFGAGTKLEIKR
notes: Captured through goat anti-mouse Fc in Biacore; ruthenium-labelled as detection antibody in the sandwich ELISA; also called detection/conjugate antibody IBA032; anti-glucagon C-terminal antibody IBA032
In test [1], B1 registered a Kd of 8.7 pM. For the same molecule, in test [2], the “fold stronger affinity than reference antibody K79bB10” value is ~800 fold. In test [3], this molecule had a koff of 0.00024 s⁻¹ and a kon of 2.7e+07 M⁻¹ s⁻¹.

B2: anti-glucagon monoclonal antibody IBA009 (antibody, mouse IgG1, kappa, V domains shown)
VH: QVQLLQPGAELVKPGASVKLSCKASGYNFNDYWLNWVKQRPGQGLEWIGNAYPGWGIINYNEKFKSKVTLTVDTSSSTVYMQLSSLTSDDSAVYYCARDYDNAYWGQGTTVTVSS
VL: NIVMTQSPKSMSMSVGERVTLTCKASENAGTYVAWYQQKPEQSPKLLIYNGSHRYDGVPDRFTGSGSATDFTLTISSVQAEDLADYYCGQSYSYPWTFGGGTKLEMKR
notes: Captured through goat anti-mouse Fc in Biacore; biotin-labelled as capture antibody in the sandwich ELISA; also called capture antibody IBA009; anti-mid region antibody IBA009
B2: in test [4], the “fold stronger affinity than reference antibody 2D3-2B11” value was ~130 fold. Besides, the Kd in test [1] amounted to 0.73 pM. In test [3], the koff turned out to be 1.1e-05 s⁻¹ and the kon is 1.5e+07 M⁻¹ s⁻¹.
